Results: article PMC4643883
Like-named read-outs stand apart in the source and are kept apart here.

B1: Verrocchio (Ver), D. melanogaster (natural protein)
chain: MDFNQSFEDIESQLDNFVIRKNQQSEKSTGKCGPEVHDNVPLTISQIERATQDPENENVFITDDVHPIHFCTCIIYAFVTGNGTHNESFMKFMIDDGTGSLEASITKKPFNGRVISSLYSEASSLASSEAYKSIAVSMMRLLQVSMEYIDPTRISRGHSLFLRGRPNRFRGKMGLDAFQFFIDSGRSRNMEIGFVDYLTDWQRRHKTMQNTTNK

Tests used:
[1] = target: Drosophila Telomere Loss / Modigliani (DTL/Moi), D. melanogaster (Drosophila melanogaster) (UniProt B7Z0L8); assay: SEC; combined heparin-sepharose fractions of co-expressed Ver and DTL/Moi; Superdex 200 10/300 GL; 20 mM Tris pH 7.5, 100 mM NaCl
[2] = target: Drosophila Telomere Loss / Modigliani (DTL/Moi), D. melanogaster (Drosophila melanogaster) (UniProt B7Z0L8); assay: as above; remark: listed apart in the source

Sequence of UniProt B7Z0L8 (B7Z0L8 whole entry): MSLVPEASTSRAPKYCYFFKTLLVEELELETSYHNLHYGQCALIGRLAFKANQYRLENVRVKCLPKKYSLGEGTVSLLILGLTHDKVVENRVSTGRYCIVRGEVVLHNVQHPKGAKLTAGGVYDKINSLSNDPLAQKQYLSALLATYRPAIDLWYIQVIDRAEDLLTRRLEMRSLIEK

| Molecule | stoichiometry N [1] | stoichiometry N [2] |
| --- | --- | --- |
| D. yakuba Verrocchio (Ver) (natural protein) | 1 | – |
| B1 | – | 1 |
